Columns and labels:
Grb2 SH2 = Grb2 SH2 (UniProt P62993); test: SH2 binding enrichment of the phosphorylated peptide, bacterial display (enrichment ratio); higher = better substrate or ligand; peptides without Tyr show the background
SHP2-C SH2 = test: as above
c-Src SH2 = test: as above
Fes = Fes (UniProt P07332); test: phosphorylation enrichment, bacterial display (enrichment ratio); higher = better substrate or ligand; peptides without Tyr show the background
Fer (mouse) = test: as above
Jak2 = Jak2 (UniProt O60674); test: as above
Hck = Hck (UniProt P08631); test: as above
FGFR1 = FGFR1 (UniProt P11362); test: as above
MERTK = MERTK (UniProt Q12866); test: as above
AncSZ = test: as above
c-Src = test: as above
EPHB1 = EPHB1 (UniProt P54762); test: as above
EPHB2 = EPHB2 (UniProt P29323); test: as above
c-Abl (mouse) = test: as above
FGFR3 = FGFR3 (UniProt P22607); test: as above
Fyn = Fyn (UniProt P06241); test: as above
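Wherever SH2 binding enrichment of the phosphorylated peptide, bacterial display is given: peptide library displayed on the E. coli surface as eCPX fusions, selected cells deep-sequenced, score is each peptide's frequency after selection divided by its frequency in the input.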
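Wherever phosphorylation enrichment, bacterial display is given: 11-residue human phosphosite peptides and single-mutation variants displayed on the E. coli surface, counted by deep sequencing, each peptide's frequency after selection divided by its frequency in the unselected input library; frequency after pTyr selection over input frequency; kinase dosed for 20-30% of maximal phosphorylation in three min.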

Chain of FGFR3 (P22607 whole entry, looked up): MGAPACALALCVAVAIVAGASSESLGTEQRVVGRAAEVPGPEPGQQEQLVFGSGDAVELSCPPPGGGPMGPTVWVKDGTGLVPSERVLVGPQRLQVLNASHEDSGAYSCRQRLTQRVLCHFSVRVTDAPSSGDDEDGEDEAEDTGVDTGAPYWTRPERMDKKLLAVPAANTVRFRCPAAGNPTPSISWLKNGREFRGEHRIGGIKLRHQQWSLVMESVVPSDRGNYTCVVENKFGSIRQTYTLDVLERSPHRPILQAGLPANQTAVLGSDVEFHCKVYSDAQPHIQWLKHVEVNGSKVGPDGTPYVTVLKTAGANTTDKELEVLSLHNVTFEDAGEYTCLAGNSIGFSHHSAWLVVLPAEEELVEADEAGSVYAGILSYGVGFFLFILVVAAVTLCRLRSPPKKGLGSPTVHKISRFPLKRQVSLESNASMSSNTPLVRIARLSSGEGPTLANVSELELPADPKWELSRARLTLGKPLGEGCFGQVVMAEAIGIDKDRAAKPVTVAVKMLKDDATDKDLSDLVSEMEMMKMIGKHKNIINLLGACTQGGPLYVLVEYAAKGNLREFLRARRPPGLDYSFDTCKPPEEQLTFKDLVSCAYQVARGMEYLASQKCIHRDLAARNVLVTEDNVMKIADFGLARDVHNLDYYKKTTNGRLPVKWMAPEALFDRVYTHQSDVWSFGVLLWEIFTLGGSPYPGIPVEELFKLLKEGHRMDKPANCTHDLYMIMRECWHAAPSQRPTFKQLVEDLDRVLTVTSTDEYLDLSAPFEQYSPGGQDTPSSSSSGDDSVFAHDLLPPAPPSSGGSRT
Chain of Hck (P08631 whole entry, looked up): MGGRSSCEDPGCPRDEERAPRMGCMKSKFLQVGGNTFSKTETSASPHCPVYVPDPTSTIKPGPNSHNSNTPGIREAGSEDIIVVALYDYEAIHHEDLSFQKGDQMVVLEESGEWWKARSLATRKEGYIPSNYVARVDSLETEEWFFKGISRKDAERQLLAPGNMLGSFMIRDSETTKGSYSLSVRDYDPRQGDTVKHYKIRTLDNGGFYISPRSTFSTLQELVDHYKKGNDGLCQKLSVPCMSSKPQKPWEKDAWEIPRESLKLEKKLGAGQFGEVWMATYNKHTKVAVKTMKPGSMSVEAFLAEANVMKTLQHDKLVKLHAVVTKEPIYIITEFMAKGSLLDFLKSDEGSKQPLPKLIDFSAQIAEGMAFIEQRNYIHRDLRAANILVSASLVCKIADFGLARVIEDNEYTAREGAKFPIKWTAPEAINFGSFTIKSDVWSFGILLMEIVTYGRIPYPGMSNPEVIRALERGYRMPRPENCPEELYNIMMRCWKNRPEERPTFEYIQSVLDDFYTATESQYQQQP
Chain of Fyn (P06241 whole entry, looked up, the tested form may be a part): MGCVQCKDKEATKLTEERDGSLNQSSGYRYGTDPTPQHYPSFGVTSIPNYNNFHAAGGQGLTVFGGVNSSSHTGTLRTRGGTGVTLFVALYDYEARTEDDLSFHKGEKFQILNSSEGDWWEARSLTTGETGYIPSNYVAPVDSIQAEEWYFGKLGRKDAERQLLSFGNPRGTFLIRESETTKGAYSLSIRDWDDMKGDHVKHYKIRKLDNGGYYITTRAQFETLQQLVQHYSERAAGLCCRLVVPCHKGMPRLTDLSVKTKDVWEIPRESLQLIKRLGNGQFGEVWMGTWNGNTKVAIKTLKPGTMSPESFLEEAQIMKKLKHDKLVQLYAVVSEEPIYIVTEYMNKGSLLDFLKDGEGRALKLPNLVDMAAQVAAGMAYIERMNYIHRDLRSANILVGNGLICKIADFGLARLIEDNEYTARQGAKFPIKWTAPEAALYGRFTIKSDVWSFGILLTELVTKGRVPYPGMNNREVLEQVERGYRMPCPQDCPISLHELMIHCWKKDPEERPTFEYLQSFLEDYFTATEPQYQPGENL
Chain of MERTK (Q12866 whole entry, looked up): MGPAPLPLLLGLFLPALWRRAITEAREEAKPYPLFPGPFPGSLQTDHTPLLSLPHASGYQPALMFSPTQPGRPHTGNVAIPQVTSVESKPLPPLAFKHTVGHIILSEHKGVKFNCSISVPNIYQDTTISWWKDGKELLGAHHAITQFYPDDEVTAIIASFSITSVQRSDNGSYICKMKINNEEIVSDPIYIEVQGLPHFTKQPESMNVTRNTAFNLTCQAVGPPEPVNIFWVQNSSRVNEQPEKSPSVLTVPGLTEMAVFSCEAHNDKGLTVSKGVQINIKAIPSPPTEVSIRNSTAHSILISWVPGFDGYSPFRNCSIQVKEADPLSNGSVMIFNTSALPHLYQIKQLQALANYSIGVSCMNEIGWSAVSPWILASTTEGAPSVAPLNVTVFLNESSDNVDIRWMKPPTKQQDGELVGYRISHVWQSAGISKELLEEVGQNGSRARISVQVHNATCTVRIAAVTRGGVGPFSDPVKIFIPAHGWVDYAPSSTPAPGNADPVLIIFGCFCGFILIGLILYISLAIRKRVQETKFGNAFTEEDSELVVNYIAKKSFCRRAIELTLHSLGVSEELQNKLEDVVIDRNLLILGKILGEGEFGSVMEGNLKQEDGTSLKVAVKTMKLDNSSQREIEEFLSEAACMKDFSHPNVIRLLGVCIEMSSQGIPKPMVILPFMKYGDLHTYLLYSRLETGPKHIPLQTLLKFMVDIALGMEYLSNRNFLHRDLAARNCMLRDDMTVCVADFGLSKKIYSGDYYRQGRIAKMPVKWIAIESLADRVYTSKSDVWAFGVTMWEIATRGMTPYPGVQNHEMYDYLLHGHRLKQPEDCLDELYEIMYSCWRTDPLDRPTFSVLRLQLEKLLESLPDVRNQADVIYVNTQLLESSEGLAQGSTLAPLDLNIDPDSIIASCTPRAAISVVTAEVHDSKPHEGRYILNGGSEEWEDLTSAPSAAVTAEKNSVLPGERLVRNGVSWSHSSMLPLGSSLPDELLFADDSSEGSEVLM
Chain of Fes (P07332 whole entry, looked up): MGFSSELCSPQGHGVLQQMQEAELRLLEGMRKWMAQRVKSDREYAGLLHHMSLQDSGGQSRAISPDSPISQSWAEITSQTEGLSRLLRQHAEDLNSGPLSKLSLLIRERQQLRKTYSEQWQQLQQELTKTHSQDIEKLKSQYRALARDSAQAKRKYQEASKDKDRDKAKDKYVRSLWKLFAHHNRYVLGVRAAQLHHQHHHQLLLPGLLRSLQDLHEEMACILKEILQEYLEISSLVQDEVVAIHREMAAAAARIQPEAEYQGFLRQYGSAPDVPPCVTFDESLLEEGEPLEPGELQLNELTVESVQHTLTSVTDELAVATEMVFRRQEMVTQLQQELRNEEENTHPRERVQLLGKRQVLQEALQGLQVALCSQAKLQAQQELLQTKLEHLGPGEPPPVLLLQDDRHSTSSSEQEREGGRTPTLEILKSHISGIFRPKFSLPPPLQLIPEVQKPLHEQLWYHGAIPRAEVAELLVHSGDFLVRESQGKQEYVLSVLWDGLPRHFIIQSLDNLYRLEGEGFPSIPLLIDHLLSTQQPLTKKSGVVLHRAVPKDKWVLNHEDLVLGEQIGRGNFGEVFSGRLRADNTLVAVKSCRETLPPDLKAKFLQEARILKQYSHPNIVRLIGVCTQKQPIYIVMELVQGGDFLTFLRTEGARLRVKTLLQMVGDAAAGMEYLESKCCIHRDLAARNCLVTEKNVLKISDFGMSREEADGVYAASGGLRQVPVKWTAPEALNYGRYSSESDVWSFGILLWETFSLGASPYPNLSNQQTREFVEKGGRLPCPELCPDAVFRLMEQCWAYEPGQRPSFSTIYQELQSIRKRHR
Chain of EPHB1 (P54762 whole entry, looked up): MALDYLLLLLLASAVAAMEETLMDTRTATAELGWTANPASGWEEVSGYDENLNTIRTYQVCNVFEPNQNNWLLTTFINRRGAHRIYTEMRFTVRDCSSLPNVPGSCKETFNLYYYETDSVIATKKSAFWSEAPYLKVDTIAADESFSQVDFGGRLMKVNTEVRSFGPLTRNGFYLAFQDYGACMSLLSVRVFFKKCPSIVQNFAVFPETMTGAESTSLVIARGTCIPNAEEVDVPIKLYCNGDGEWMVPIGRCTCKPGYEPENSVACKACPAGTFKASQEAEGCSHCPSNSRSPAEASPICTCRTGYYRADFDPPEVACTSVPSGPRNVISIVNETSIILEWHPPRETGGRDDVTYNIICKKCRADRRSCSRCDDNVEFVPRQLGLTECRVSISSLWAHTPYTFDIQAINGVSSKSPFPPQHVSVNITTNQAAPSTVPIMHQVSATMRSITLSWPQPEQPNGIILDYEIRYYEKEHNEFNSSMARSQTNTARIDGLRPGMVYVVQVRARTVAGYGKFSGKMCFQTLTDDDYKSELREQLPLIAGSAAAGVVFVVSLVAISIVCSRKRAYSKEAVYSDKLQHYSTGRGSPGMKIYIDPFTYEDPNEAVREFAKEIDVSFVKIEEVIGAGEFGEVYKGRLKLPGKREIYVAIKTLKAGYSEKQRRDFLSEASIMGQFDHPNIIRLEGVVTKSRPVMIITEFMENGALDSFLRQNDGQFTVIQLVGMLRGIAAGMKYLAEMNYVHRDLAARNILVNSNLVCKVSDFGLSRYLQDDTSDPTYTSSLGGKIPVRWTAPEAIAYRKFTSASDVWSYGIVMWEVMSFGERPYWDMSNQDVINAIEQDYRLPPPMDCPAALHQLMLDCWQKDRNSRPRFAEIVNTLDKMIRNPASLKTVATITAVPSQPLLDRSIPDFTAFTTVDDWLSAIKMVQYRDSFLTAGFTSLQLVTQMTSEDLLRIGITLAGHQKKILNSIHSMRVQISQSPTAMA

Row | SH2 binding enrichment (Grb2 SH2) | SH2 binding enrichment (SHP2-C SH2) | SH2 binding enrichment (c-Src SH2) | Sequence | phosphorylation enrichment (Fes) | phosphorylation enrichment (Fer (mouse)) | phosphorylation enrichment (Jak2) | phosphorylation enrichment (Hck) | phosphorylation enrichment (FGFR1) | phosphorylation enrichment (MERTK) | phosphorylation enrichment (AncSZ) | phosphorylation enrichment (c-Src) | phosphorylation enrichment (EPHB1) | phosphorylation enrichment (EPHB2) | phosphorylation enrichment (c-Abl (mouse)) | phosphorylation enrichment (FGFR3) | phosphorylation enrichment (Fyn)
1 | 1.01 | 1.1 | 0.567 | HSDYQYGQRSQ [PKP2_Y168_S169G] | 0.44 | 0.478 | 0.446 | 0.574 | 0.357 | 0.439 | 0.618 | 0.402 | 0.449 | 0.335 | 0.484 | 0.457 | 0.578
2 | 0.999 | 0.716 | 0.785 | IVRSLYKDLED [VHL_Y185_E186K] | 1.19 | 0.688 | 0.877 | 0.479 | 0.502 | 0.496 | 1.25 | 0.445 | 0.497 | 0.559 | 0.691 | 0.688 | 0.535
3 | 1.96 | 1.53 | 1.11 | RIILLYIFLKN [STXBP1_Y411] | 1.01 | 0.45 | 0.994 | 0.42 | 0.466 | 0.581 | 0.83 | 0.62 | 0.298 | 0.332 | 0.827 | 0.489 | 0.212
4 | 0.706 | 0.36 | 0.479 | MKGDFYRFLAE [YWHAG_Y131_YF] | 0.798 | 0.426 | 0.845 | 0.349 | 0.448 | 0.734 | 0.803 | 0.448 | 0.497 | 0.494 | 0.596 | 0.49 | 0.429
5 | 0.856 | 0.719 | 0.505 | ATQDDYVLEVR [PTPRZ1_Y2179] | 1.23 | 0.497 | 1.08 | 0.56 | 0.552 | 0.492 | 1.45 | 0.601 | 0.632 | 0.62 | 0.766 | 0.701 | 0.626
6 | 0.793 | 0.597 | 0.374 | YSKDNYKRVTG [PANK2_Y405] | 0.611 | 0.494 | 0.6 | 0.344 | 0.456 | 0.488 | 0.675 | 0.44 | 0.362 | 0.44 | 0.52 | 0.4 | 0.387
7 | 0.797 | 0.723 | 0.404 | YGLPRYRWLTH [TSPAN12_Y143] | 0.765 | 0.411 | 0.659 | 0.543 | 0.572 | 0.492 | 0.841 | 0.387 | 0.5 | 0.628 | 0.512 | 0.475 | 0.492
8 | 0.923 | 1.11 | 2.31 | IYKAAYFGVYD [SLC25A4_Y191_R188K] | 1.05 | 0.893 | 0.993 | 5.77 | 0.628 | 1.4 | 1.17 | 5.18 | 1.4 | 1.32 | 0.865 | 0.745 | 6.16
9 | 3.35 | 0.917 | 2.25 | VLNDAYENLTR [SYNE2_Y3255] | 0.859 | 0.581 | 0.665 | 0.521 | 0.559 | 0.379 | 1.08 | 0.391 | 0.531 | 0.759 | 0.605 | 0.761 | 0.524
10 | 1.59 | 1.66 | 1.21 | NFDRVYIFHLR [MYOF_Y1137_YF] | 1.19 | 0.523 | 1.18 | 0.473 | 0.535 | 0.46 | 1.19 | 0.615 | 0.545 | 0.559 | 0.91 | 0.897 | 0.414
11 | 1.26 | 0.82 | 0.728 | AQRKLYRNVML [ZNF569_Y33] | 0.583 | 0.373 | 0.629 | 0.481 | 0.4 | 0.47 | 0.566 | 0.535 | 0.412 | 0.287 | 0.482 | 0.372 | 0.41
12 | 1.18 | 1.07 | 0.872 | AHPIIYEIIEA [PYKtide_E_2014] | 5.96 | 16.2 | 1.16 | 9.98 | 2.02 | 11.6 | 1.93 | 8.32 | 22.3 | 20.4 | 2.94 | 1.59 | 9.6
13 | 0.835 | 1.13 | 0.519 | CEDGTYSPEIS [PTDSS1_Y424] | 1.33 | 0.589 | 1.33 | 0.595 | 0.5 | 0.486 | 1.2 | 0.663 | 0.649 | 0.578 | 0.838 | 0.824 | 0.512
14 | 0.803 | 1.27 | 2.09 | VDTPMYATMQR [TPO_Y55_A53P] | 0.942 | 0.706 | 0.593 | 5.46 | 0.52 | 1.81 | 0.826 | 3.3 | 1.1 | 0.838 | 2.11 | 0.684 | 3.58
15 | 0.963 | 0.58 | 0.747 | QITQVCGFYDE [PPP2CA_Y127_Y127C] | 1.57 | 0.856 | 1.19 | 0.865 | 0.648 | 0.522 | 1.21 | 0.823 | 1.1 | 0.849 | 1.08 | 0.995 | 0.636

The next lines start with the sequence.

Row | Sequence | SH2 binding enrichment (Grb2 SH2) | SH2 binding enrichment (SHP2-C SH2) | SH2 binding enrichment (c-Src SH2) | phosphorylation enrichment (Fes) | phosphorylation enrichment (Fer (mouse)) | phosphorylation enrichment (Jak2) | phosphorylation enrichment (Hck) | phosphorylation enrichment (FGFR1) | phosphorylation enrichment (MERTK) | phosphorylation enrichment (AncSZ) | phosphorylation enrichment (c-Src) | phosphorylation enrichment (EPHB1) | phosphorylation enrichment (EPHB2) | phosphorylation enrichment (c-Abl (mouse)) | phosphorylation enrichment (FGFR3) | phosphorylation enrichment (Fyn)
16 | QMVGMYAFSYM [AVPR2_Y124_S126F] | 0.638 | 0.651 | 0.562 | 1.86 | 4.47 | 1.44 | 1.52 | 0.804 | 6.65 | 2.25 | 1.35 | 2.45 | 1.84 | 1.27 | 1.15 | 1.55
17 | RDWSLYFKIIE [KRT18_Y129_H128L] | 0.567 | 0.406 | 0.314 | 1.56 | 0.464 | 1.09 | 0.356 | 0.395 | 0.327 | 1.66 | 0.354 | 0.799 | 0.576 | 0.4 | 0.841 | 0.447
18 | IGLHAYGDQYR [IDH1_Y135_R132L] | 0.847 | 0.599 | 0.469 | 0.834 | 0.48 | 0.563 | 0.529 | 0.46 | 0.426 | 0.681 | 0.473 | 0.469 | 0.487 | 0.561 | 0.598 | 0.498
19 | SRIWVYNHFRC [BRCA2_Y2621_W2626C_YF] | 0.869 | 0.589 | 0.558 | 1.43 | 0.653 | 1.19 | 0.543 | 0.575 | 0.466 | 1.16 | 0.483 | 0.638 | 0.672 | 0.976 | 0.937 | 0.547
20 | PIDLFYLMDLS [ITGB2_Y131_YF] | 0.957 | 0.88 | 0.524 | 1.99 | 0.426 | 1.22 | 0.771 | 0.633 | 0.728 | 1.61 | 1.52 | 0.737 | 0.559 | 0.98 | 1.13 | 0.599
21 | SEQNNYSRVAN [CWC22_Y797_R794Q] | 0.784 | 3.97 | 1.66 | 0.534 | 0.497 | 0.535 | 0.458 | 0.43 | 0.4 | 0.705 | 0.35 | 1.14 | 0.878 | 0.447 | 0.437 | 0.458
22 | AAGGRYFGLVG [HARS1_Y363_D364Y_YF] | 1.06 | 0.828 | 0.608 | 0.764 | 0.389 | 0.575 | 0.354 | 0.375 | 0.395 | 0.516 | 0.461 | 0.312 | 0.377 | 0.626 | 0.471 | 0.396
23 | RIGRKCKKVRF [F8_Y442_Y442C] | 0.638 | 0.428 | 0.433 | 0.595 | 0.363 | 0.654 | 0.52 | 1.67 | 0.549 | 0.608 | 0.794 | 0.567 | 0.556 | 0.524 | 0.572 | 0.55
24 | MPAVTYTLAMR [MEGF10_Y895_P897L] | 0.758 | 3.33 | 0.726 | 1.03 | 0.488 | 0.845 | 0.514 | 0.453 | 0.437 | 1.08 | 0.503 | 0.516 | 0.588 | 0.724 | 0.73 | 0.53
25 | NDQANYLLNTD [ADA_Y290_S291L] | 0.765 | 0.893 | 0.527 | 0.968 | 0.379 | 0.934 | 0.469 | 0.432 | 0.395 | 0.987 | 0.468 | 0.558 | 0.56 | 0.681 | 0.601 | 0.491
26 | MGHVNYGAFIN [GLB1_Y485_R482H_YF] | 0.882 | 0.804 | 0.44 | 0.756 | 0.406 | 0.72 | 0.609 | 0.449 | 0.391 | 0.611 | 0.706 | 0.565 | 0.615 | 0.565 | 0.505 | 0.672
27 | WQQQSYLDSGI [CTNNB1_Y30] | 0.726 | 0.649 | 0.571 | 0.847 | 0.428 | 0.758 | 0.407 | 0.479 | 0.418 | 0.75 | 0.38 | 0.489 | 0.433 | 0.568 | 0.597 | 0.388
28 | VQQVIYATGAL [MYH7_Y422] | 0.798 | 0.727 | 0.413 | 1 | 0.71 | 1.38 | 7.57 | 0.488 | 3.08 | 0.932 | 5.97 | 0.96 | 0.986 | 25.3 | 0.798 | 6.98
29 | EHVMPYAANKN [GRIN2A_Y1431] | 0.792 | 0.747 | 0.484 | 0.463 | 0.253 | 0.56 | 0.358 | 0.361 | 0.322 | 0.53 | 0.375 | 0.392 | 0.302 | 0.374 | 0.344 | 0.313
30 | SLQFEYVHYGG [CDC14A_Y591_S589F] | 0.686 | 0.523 | 0.609 | 0.904 | 0.481 | 0.766 | 0.551 | 0.797 | 0.348 | 1.06 | 0.465 | 0.556 | 0.628 | 0.405 | 0.742 | 0.516
31 | LISVSYDDWDF [GRIN2A_Y281_YF] | 1.12 | 0.797 | 1.36 | 2.44 | 19.4 | 2.06 | 0.893 | 1.08 | 1.03 | 3.36 | 1.07 | 1.46 | 1 | 1.64 | 1.09 | 0.953
32 | RRERPYGGGGG [FUS_Y526] | 0.703 | 0.478 | 0.436 | 0.467 | 0.46 | 0.42 | 0.414 | 0.554 | 0.375 | 0.563 | 0.485 | 0.453 | 0.554 | 0.284 | 0.523 | 0.471
33 | VSTAVYKRFPS [BEST1_Y148] | 0.748 | 0.647 | 0.414 | 0.733 | 0.395 | 0.593 | 0.426 | 0.498 | 0.526 | 0.512 | 0.395 | 0.348 | 0.382 | 0.668 | 0.463 | 0.379

From the supplement of paper PMC10065799, “High-throughput profiling of sequence recognition by tyrosine kinases and SH2 domains using bacterial peptide display” (eLife, 2023)
